Experiment [1] can be described thus: Transpeptidation of FA-Ala-Xaa-OH with H-Gly-NH2, Table 2. Type of experiment: biochemical. The conditions noted are these: for Fraction of aminolysis (fa), P1' Ala: FA-Ala-Ala-OH 0.2 mM; for Fraction of aminolysis (fa), P1' Ala / Fraction of aminolysis (fa), P1' Leu / Fraction of aminolysis (fa), P1' Met / Fraction of aminolysis (fa), P1' Phe / Fraction of aminolysis (fa), P1' Val: 1.9 M H-Gly-NH2, pH 7.5, room temperature; for Fraction of aminolysis (fa), P1' Leu: FA-Ala-Leu-OH 0.2 mM; for Fraction of aminolysis (fa), P1' Met: FA-Ala-Met-OH 0.2 mM; for Fraction of aminolysis (fa), P1' Phe: FA-Ala-Phe-OH 0.2 mM; for Fraction of aminolysis (fa), P1' Val: FA-Ala-Val-OH 0.2 mM; for fraction of aminolysis compared to wild type, in words: larger, hydrophobic leaving group such as leucine. On the procedure:
(§1) Transamidation reactions were carried out generally as described in PCT Application WO 95/20039. In general, the method included dissolving the nucleophile (H-Leu-NH2, unless otherwise indicated) in 50 mM HEPES, 5 mM EDTA and adjusting the pH to 7.5, 5 μl of peptide substrate (8 mM Bz-G-A-R-A-R-A-OH, unless otherwise indicated, in methanol) was added to 190 μl nucleophile solution followed by 5 μl enzyme, resulting in a substrate concentration of 0.2 mM.
(§2) During the reaction, 20 μl aliquots were removed from the reaction mixture and added to 50 μl 1% trifluoroacetic acid to quench the reaction. The reactant composition was determined by HPLC using a Waters HPLC equipped with a C-18 Waters Novapac 4μ reverse phase column and various gradients of acetonitrile in 0.1% trifluoroacetic acid. The separation was monitored at 254 nm allowing the direct quantification of the products from the integrated peak areas. The composition of the reaction mixture was determined at least twvice during the reaction, the first when 20-50% (preferably 35%) of the substrate had been consumed in the reaction and the second time when 50-90% (preferably 80%) of the peptide substrate had been consumed.
(§3) The fraction of aminolysis (fa) was expressed as the ratio between the formed aminolysis product and the sum of all products formed. Unconsumed substrate was disregarded in the calculations.
Site specific mutagenesis was performed as described for Example 1 to produce the S1 mutants used below.
Transamidation reactions were performed as described for Example 1.

A short description of experiment [2]: Transpeptidation of FA-Ala-OBzl with H-Leu-NH2, Table 3. In kind it is biochemical. The conditions noted are these: FA-Ala-OBzl 0.2 mM, pH 7.5; for fa: H-Leu-NH2; for KN(app): nucleophile H-Leu-NH2 concentration at which fa is half of maximum. On the procedure: as §1, §2, §3
Site specific mutagenesis was performed as described in Example 1 to produce the specific substitution mutants described below. Transamidation reactions were performed as described for Example 1.
In table 3, below, KN(app) represents the nucleophile concentration at which fa is half of the maximum value (a measure for the dissociation constant of the nucleophile). famax is the highest possible fa obtained at saturation of the enzyme with the nucleophile.
KN(app) indicates the concentration at which famax/2 is reached and thus describes the apparent binding constant of the nucleophile. Because the competing hydrolysis reaction is thought to occur while the leaving group remains attached to the to the acyl-enzyme intermediate, a low KN(app) is preferred.

Entries after “also recorded” stand apart in the source; their conditions may differ. Marks after values point to notes of the source that are not given here.

B1: M398N: carboxypeptidase Y S1' mutant, substitution M398N (protein, UniProt P00729 112-532, looked up, variant M398N)
Carboxypeptidase Y: KIKDPKILGIDPNVTQYTGYLDVEDEDKHFFFWTFESRNDPAKDPVILWLNGGPGCSSLTGLFFELGPSSIGPDLKPIGNPYSWNSNATVIFLDQPVNVGFSYSGSSGVSNTVAAGKDVYNFLELFFDQFPEYVNKGQDFHIAGESYAGHYIPVFASEILSHKDRNFNLTSVLIGNGLTDPLTQYNYYEPMACGEGGEPSVLPSEECSAMEDSLERCLGLIESCYDSQSVWSCVPATIYCNNAQLAPYQRTGRNVYDIRKDCEGGNLCYPTLQDIDDYLNQDYVKEAVGAEVDHYESCNFDINRNFLFAGDWMKPYHTAVTDLLNQDLPILVYAGDKDFICNWLGNKAWTDVLPWKYDEEFASQKVRNWTASITDEVAGEVKSYKHFTYLRVFNGGHNVPFDVPENALSMVNEWIHGGFSL
On to B1, for which, in experiment [1], the “Fraction of aminolysis (fa), P1' Ala” value is 0.92; the “Fraction of aminolysis (fa), P1' Leu” value was 0.36; the “Fraction of aminolysis (fa), P1' Met” value is recorded as 0.70; the “Fraction of aminolysis (fa), P1' Phe” value was 0.11. Besides, in experiment [1], the “Fraction of aminolysis (fa), P1' Val” value was determined as 0.52 and the “fraction of aminolysis compared to wild type, in words” value is “improvement in fraction of aminolysis obtained; also recorded: enhanced transpeptidation”. Moreover, in experiment [2], the fa was 0.83^a and the “KN(app)” value was 1.2^c mM.

B2: T60A: carboxypeptidase Y S1' mutant, substitution T60A (protein, UniProt P00729 112-532, looked up, variant T60A)
Carboxypeptidase Y: KIKDPKILGIDPNVTQYTGYLDVEDEDKHFFFWTFESRNDPAKDPVILWLNGGPGCSSLAGLFFELGPSSIGPDLKPIGNPYSWNSNATVIFLDQPVNVGFSYSGSSGVSNTVAAGKDVYNFLELFFDQFPEYVNKGQDFHIAGESYAGHYIPVFASEILSHKDRNFNLTSVLIGNGLTDPLTQYNYYEPMACGEGGEPSVLPSEECSAMEDSLERCLGLIESCYDSQSVWSCVPATIYCNNAQLAPYQRTGRNVYDIRKDCEGGNLCYPTLQDIDDYLNQDYVKEAVGAEVDHYESCNFDINRNFLFAGDWMKPYHTAVTDLLNQDLPILVYAGDKDFICNWLGNKAWTDVLPWKYDEEFASQKVRNWTASITDEVAGEVKSYKHFTYLRVFNGGHMVPFDVPENALSMVNEWIHGGFSL
Regarding B2, in experiment [1], the “Fraction of aminolysis (fa), P1' Ala” value is 0.91; the “Fraction of aminolysis (fa), P1' Leu” value is reported as 0.32; the “Fraction of aminolysis (fa), P1' Met” value is listed as 0.16; the “Fraction of aminolysis (fa), P1' Phe” value is reported as 0.12. Also, in experiment [1], the “Fraction of aminolysis (fa), P1' Val” value came to 0.44 and the “fraction of aminolysis compared to wild type, in words” value is on record as “improvement in fraction of aminolysis obtained; also recorded: most effective at increasing the fraction of aminolysis”. The fa in experiment [2] was 0.92^a.

B3: T60D: carboxypeptidase Y S1' mutant, substitution T60D (protein, UniProt P00729 112-532, looked up, variant T60D)
Carboxypeptidase Y: KIKDPKILGIDPNVTQYTGYLDVEDEDKHFFFWTFESRNDPAKDPVILWLNGGPGCSSLDGLFFELGPSSIGPDLKPIGNPYSWNSNATVIFLDQPVNVGFSYSGSSGVSNTVAAGKDVYNFLELFFDQFPEYVNKGQDFHIAGESYAGHYIPVFASEILSHKDRNFNLTSVLIGNGLTDPLTQYNYYEPMACGEGGEPSVLPSEECSAMEDSLERCLGLIESCYDSQSVWSCVPATIYCNNAQLAPYQRTGRNVYDIRKDCEGGNLCYPTLQDIDDYLNQDYVKEAVGAEVDHYESCNFDINRNFLFAGDWMKPYHTAVTDLLNQDLPILVYAGDKDFICNWLGNKAWTDVLPWKYDEEFASQKVRNWTASITDEVAGEVKSYKHFTYLRVFNGGHMVPFDVPENALSMVNEWIHGGFSL
Regarding B3, in experiment [1], the “Fraction of aminolysis (fa), P1' Ala” value is 0.87; the “Fraction of aminolysis (fa), P1' Leu” value was found to be 0.25; the “Fraction of aminolysis (fa), P1' Met” value was found to be 0.15; the “Fraction of aminolysis (fa), P1' Phe” value was determined as 0.15. In addition, in experiment [1], the “Fraction of aminolysis (fa), P1' Val” value is given as 0.53 and the “fraction of aminolysis compared to wild type, in words” value is recorded as “improvement in fraction of aminolysis obtained”. Also, in experiment [2], the fa was 0.94^a and the “KN(app)” value is listed as 1.5^c mM.

B4: M398G: carboxypeptidase Y S1' mutant, substitution M398G (protein, UniProt P00729 112-532, looked up, variant M398G)
Carboxypeptidase Y: KIKDPKILGIDPNVTQYTGYLDVEDEDKHFFFWTFESRNDPAKDPVILWLNGGPGCSSLTGLFFELGPSSIGPDLKPIGNPYSWNSNATVIFLDQPVNVGFSYSGSSGVSNTVAAGKDVYNFLELFFDQFPEYVNKGQDFHIAGESYAGHYIPVFASEILSHKDRNFNLTSVLIGNGLTDPLTQYNYYEPMACGEGGEPSVLPSEECSAMEDSLERCLGLIESCYDSQSVWSCVPATIYCNNAQLAPYQRTGRNVYDIRKDCEGGNLCYPTLQDIDDYLNQDYVKEAVGAEVDHYESCNFDINRNFLFAGDWMKPYHTAVTDLLNQDLPILVYAGDKDFICNWLGNKAWTDVLPWKYDEEFASQKVRNWTASITDEVAGEVKSYKHFTYLRVFNGGHGVPFDVPENALSMVNEWIHGGFSL
Regarding B4, in experiment [1], the “Fraction of aminolysis (fa), P1' Ala” value was found to be 0.93; the “Fraction of aminolysis (fa), P1' Leu” value turned out to be 0.59; the “Fraction of aminolysis (fa), P1' Met” value is listed as 0.83; the “Fraction of aminolysis (fa), P1' Phe” value is reported as 0.66. In experiment [1], the “Fraction of aminolysis (fa), P1' Val” value is reported as 0.42 and the “fraction of aminolysis compared to wild type, in words” value is reported as “improvement in fraction of aminolysis obtained”. Also, in experiment [2], the fa was 0.95^a and the “KN(app)” value was 1.6^a mM.

B5: M398A: carboxypeptidase Y S1' mutant, substitution M398A (protein, UniProt P00729 112-532, looked up, variant M398A)
Carboxypeptidase Y: KIKDPKILGIDPNVTQYTGYLDVEDEDKHFFFWTFESRNDPAKDPVILWLNGGPGCSSLTGLFFELGPSSIGPDLKPIGNPYSWNSNATVIFLDQPVNVGFSYSGSSGVSNTVAAGKDVYNFLELFFDQFPEYVNKGQDFHIAGESYAGHYIPVFASEILSHKDRNFNLTSVLIGNGLTDPLTQYNYYEPMACGEGGEPSVLPSEECSAMEDSLERCLGLIESCYDSQSVWSCVPATIYCNNAQLAPYQRTGRNVYDIRKDCEGGNLCYPTLQDIDDYLNQDYVKEAVGAEVDHYESCNFDINRNFLFAGDWMKPYHTAVTDLLNQDLPILVYAGDKDFICNWLGNKAWTDVLPWKYDEEFASQKVRNWTASITDEVAGEVKSYKHFTYLRVFNGGHAVPFDVPENALSMVNEWIHGGFSL
Consider B5, for which, in experiment [1], the “Fraction of aminolysis (fa), P1' Ala” value stood at 0.93; the “Fraction of aminolysis (fa), P1' Leu” value amounted to 0.84; the “Fraction of aminolysis (fa), P1' Met” value was 0.89; the “Fraction of aminolysis (fa), P1' Phe” value is on record as 0.84. Moreover, in experiment [1], the “Fraction of aminolysis (fa), P1' Val” value was 0.65 and the “fraction of aminolysis compared to wild type, in words” value is listed as “improvement in fraction of aminolysis obtained; also recorded: enhanced transpeptidation”. In addition, in experiment [2], the fa is 0.93^a and the “KN(app)” value is reported as 0.83^a mM.

B6: T60Y: carboxypeptidase Y S1' mutant, substitution T60Y (protein, UniProt P00729 112-532, looked up, variant T60Y)
Carboxypeptidase Y: KIKDPKILGIDPNVTQYTGYLDVEDEDKHFFFWTFESRNDPAKDPVILWLNGGPGCSSLYGLFFELGPSSIGPDLKPIGNPYSWNSNATVIFLDQPVNVGFSYSGSSGVSNTVAAGKDVYNFLELFFDQFPEYVNKGQDFHIAGESYAGHYIPVFASEILSHKDRNFNLTSVLIGNGLTDPLTQYNYYEPMACGEGGEPSVLPSEECSAMEDSLERCLGLIESCYDSQSVWSCVPATIYCNNAQLAPYQRTGRNVYDIRKDCEGGNLCYPTLQDIDDYLNQDYVKEAVGAEVDHYESCNFDINRNFLFAGDWMKPYHTAVTDLLNQDLPILVYAGDKDFICNWLGNKAWTDVLPWKYDEEFASQKVRNWTASITDEVAGEVKSYKHFTYLRVFNGGHMVPFDVPENALSMVNEWIHGGFSL
As for B6, in experiment [1], the “Fraction of aminolysis (fa), P1' Ala” value turned out to be 0.90; the “Fraction of aminolysis (fa), P1' Leu” value is 0.66; the “Fraction of aminolysis (fa), P1' Met” value came out at 0.58; the “Fraction of aminolysis (fa), P1' Phe” value is 0.51. For the same molecule, in experiment [1], the “Fraction of aminolysis (fa), P1' Val” value is reported as 0.43 and the “fraction of aminolysis compared to wild type, in words” value is listed as “improvement in fraction of aminolysis obtained; also recorded: most dramatic improvement; also recorded: most effective at increasing the fraction of aminolysis”. The fa in experiment [2] is 0.95^a.

These data come from patent US20010010923A1, “MODIFIED CARBOXYPEPTIDASE” (priority 1997, published 2001).
